Columns and labels:
[1] = test system: Human osteoblasts (HOB) cells; test: Cell attachment on wells coated with BSA-conjugated extended P1 peptide, BSA or FN; type: cell-based; details: soluble peptide 100 μg/ml, compared to RAD control peptide
Method: 96-Well ELISA plates were coated with 1 μg/ml of bovine serum albumin (BSA) conjugated peptide (“Extended P1”: […]c; SEQ ID NO:29) conjugated through its C-terminal cysteine via Beta-maleimidopropionic acid N-hydroxysuccinimide ester (MPS). Peptides were dissolved in NaHCO3/Na2CO3 coating buffer, pH 9.6 and plates coated at 4° C. for overnight. Wells coated with 1 μg/ml BSA NaHCO3/Na2CO3 coating buffer or 5 μg/ml FN in 50 mM Tris-HCl, pH 7.4 were used as the control coating materials. Human osteoblasts (HOB) cells in suspension was treated with 100 μg/ml RAD (GRADS; SEQ ID NO:9) or RGD (GRGDTP; SEQ ID NO:8) peptide for 20 min, the cells (3×10^4/well) were seeded into the wells, previously washed with 50 mM Tris-HCl, pH 7.4, and allowed to settle for 30 min. Attached cells were washed once with PBS, pH 7.4, and then fixed with 3.7% paraformaldehyde, further permeabilized with 0.1% (v/v) Triton® X-100 detergent in PBS, and co-stained with May-Grunwald and Giemsa stains as described previously.

FN = test: Measurement of TG2 binding to FN by ELISA (cell lysates); details: lysates of transfected HEK293T/17 cells, normalised for expression
Method: Microtitre 96 well plates were coated with 50 μl of 5 μg/ml FN in 50 mM Tris-HCl, pH 7.4 at 4° C. overnight. The wells were blocked for 30 min with 5% (w/v) fat-free milk in PBS, pH 7.4 and washed twice with PBS-TWEEN® detergent, pH 7.4 and once with PBS, pH 7.4. Aliquots (100 μl) of cell lysate containing 60 μg protein were added to the FN-coated wells and incubated for 1 h at 37° C. After washing three times with PBS, pH 7.4, wells were blocked with 100 μl 3% BSA in PBS, pH 7.4 (blocking buffer) for 30 min at room temperature and then incubated with 100 μl Cub7402 (1:1000 dilution in blocking buffer) for 2 h at 37° C. After washing three times with PBS, pH 7.4, the wells were incubated with 100 μl rabbit anti-mouse IgG-HRP conjugated antibody (1:1000 dilution in blocking buffer) for 2 h at 37° C. HRP was detected by the addition of 100 μl of o-phenylenediamine substrate solution (SigmaFast […]™ OPD, Sigma). Colour development was terminated by the addition of 50 μl of 2.5M H2SO4 and absorbance at 490 nm was measured. The amount of TG2/mutant TG2 binding to the FN was normalised between samples by using the densitometry values from Western blotting for the TG protein found in each of the cell lysates used. α-Tubulin was used to normalise for any differences in protein loading.

[2] = Binding of TG2 to heparin SEPHAROSE, elution with NaCl gradient; details: compared with wt TG2
Method: HEK cells, transiently transfected with wild-type and mutant TG2 were washed twice with ice cold PBS, pH 7.4 and lysed by the addition of 150 μl of 20 mM Tris-HCl pH 7.4, 10 mM EGTA, 2 mM EDTA, 1 mM NaF and 1 mM Na3VO4. After clarification by centrifugation, lysates were mixed with 450 μl of 50 mM Tris-HCl, 1 mM EDTA, 1 mM DTT, pH 7.5 and applied to a 5 ml Heparin SEPHAROSE® column (GE Healthcare) equilibrated in 50 mM Tris-HCl, 1 mM EDTA, 1 mM DTT pH 7.5 (buffer) at a flow rate of 1 ml/min. For the analysis of GTP-bound TG2 (closed conformation), lysates were pre-incubated for 1 h at room temperature with 0.5 mM GTP in 50 mM Tris-HCl, 2 mM MgCl2, 1 mM EDTA, 1 mM DTT pH 7.5. For the analysis of inhibitor-reacted TG2 (open conformation), lysates were incubated with 0.5 mM of irreversible inhibitor R281 (Griffin et al., 2008) and 10 mM CaCl2. The column was washed with 25 ml of buffer and protein was eluted with a linear gradient of increasing NaCl concentration (0-1M) in buffer. Fractions were assayed for TG2 activity and analysed for the presence of TG2 antigen by SDS-PAGE and Western blotting using CUB7402.

NIH 3T3 cells = test: Detection of TG2 at cell surface (biotinylation), in ECM and in culture medium of transfected cells; type: cell-based, mouse; details: transfected NIH 3T3 cells, biotinylation and Western blot, vs wild-type TG2
Method: Cell surface proteins were labelled by biotinylation as described previously (Wang et al., 2010). Briefly, cell monolayers were rinsed three times with ice-cold PBS pH 8.0 and labelled with 0.8 mM sulfo-NHS-LC-biotin dissolved in PBS pH 8.0 at 4° C. for 20 min. Cells were then washed with 50 mM Tris-HCl, pH 8.0 and lysed with 1% SDS at 4° C. in PBS pH8.0. Following denaturation at 95° C., cell lysates were clarified by centrifugation at 14,000×g at 20° C. and 200 μg of protein was incubated overnight at 4° C. with NEUTRAVIDIN® avidin protein-Agarose resin. After washing three times with PBS pH 8.0, the biotin-labelled proteins were dissolved in 2× Laemmli buffer separated by SDS-PAGE and subjected to Western blotting.
Following transfection, cells were incubated for 24 h with 10% (v/v) serum, which was replaced with 1% (v/v) serum and TG2 expression was allowed to proceed for a further 48 h. Proteins from 1 ml of medium were precipitated by the addition of ice cold 20% (w/v) trichloroacetic acid (TCA) to a final concentration of 10% (w/v) Pelleted proteins were then washed once with ice cold 10% (w/v) TCA, ethanol-acetone (1:1) and acetone, and resuspended in 2× Laemmli buffer (Sigma-Aldrich, UK) and analysed by SDS-PAGE and Western blot analysis using monoclonal anti-TG2 antibody (Cub7402). The remaining cells were detached with 2 mM EDTA in PBS, pH 7.4 and the ECM was extracted with 0.1% (w/v) deoxycholate in PBS, pH 7.4. The residual deoxycholate-insoluble ECM proteins were dissolved in 2× Laemmli buffer for further analysis by SDS-PAGE and Western blotting using Cub7402.

GRGDTP [RGD peptide, synthetic RGD peptide from Calbiochem]
block of cell attachment on the FN matrix [1]: around 50%

B1: D94A, D97A: TG2 fibronectin binding site mutant (protein, UniProt P21980 2-687, looked up, variant D94A D97A)
Protein-glutamine …: AEELVLERCDLELETNGRDHHTADLCREKLVVRRGQPFWLTLHFEGRNYEASVDSLTFSVVTGPAPSQEAGTKARFPLRDAVEEGDWTATVVAQQACTLSLQLTTPANAPIGLYRLSLEASTGYQGSSFVLGHFILLFNAWCPADAVYLDSEEERQEYVLTQQGFIYQGSAKFIKNIPWNFGQFEDGILDICLILLDVNPKFLKNAGRDCSRRSSPVYVGRVVSGMVNCNDDQGVLLGRWDNNYGDGVSPMSWIGSVDILRRWKNHGCQRVKYGQCWVFAAVACTVLRCLGIPTRVVTNYNSAHDQNSNLLIEYFRNEFGEIQGDKSEMIWNFHCWVESWMTRPDLQPGYEGWQALDPTPQEKSEGTYCCGPVPVRAIKEGDLSTKYDAPFVFAEVNADVVDWIQQDDGSVHKSINRSLIVGLKISTKSVGRDEREDITHTYKYPEGSSEEREAFTRANHLNKLAEKEETGMAMRIRVGQSMNMGSDFDVFAHITNNTAEEYVCRLLLCARTVSYNGILGPECGTKYLLNLNLEPFSEKSVPLCILYEKYRDCLTESNLIKVRALLVEPVINSYLLAERDLYLENPEIKIRILGEPKQKRKLVAEVSLQNPLPVALEGCTFTVEGAGLTEEQKTVEIPDPVEAGEEVKVRMDLLPLHMGLHKLVVNFESDKLKAVKGFRNVIIGPA
binding to FN compared to wild type TG2 (FN): approximately 50%
binding to heparin SEPHAROSE (in words) [2]: comparable elution profile to the wt enzyme
presence on the cell surface (NIH 3T3 cells): greater levels

Source: patent publication US9657110B2, “Polypeptides and use thereof” (ASTON UNIVERSITY, priority 2011, dated 2017)
